Laboratory results as given in PMC6658013.

Legend:
[1] = target: prefusion-stabilized RSV F variant DS-Cav1 from strain A2, tags removed, Endo H-treated (form used for crystallization) (human respiratory syncytial virus subtype A (strain A2)) (UniProt P03420); experiment: crystal structure
[2] = target: subtype A DS-Cav1 with a K209Q substitution (form used for SPR) (human respiratory syncytial virus subtype A (strain A2)) (UniProt P03420); experiment: SPR
[3] = target: prefusion-stabilized RSV F (DS-Cav1), subtype B (strain B9320), with C-terminal His tag and Strep-ta (human respiratory syncytial virus subtype B (strain B9320)); experiment: SPR
[4] = target: prefusion-stabilized RSV F (DS-Cav1), subtype A (strain A2), with C-terminal His tag and Strep-tag I (human respiratory syncytial virus subtype A (strain A2)) (UniProt P03420); experiment: SPR

Chain of AM22 antigen-binding fragment (Fab) (VH): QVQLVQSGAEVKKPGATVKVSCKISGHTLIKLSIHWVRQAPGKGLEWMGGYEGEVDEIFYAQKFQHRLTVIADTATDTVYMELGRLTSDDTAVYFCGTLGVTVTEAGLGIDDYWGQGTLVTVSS
Chain of AM22 antigen-binding fragment (Fab) (VL): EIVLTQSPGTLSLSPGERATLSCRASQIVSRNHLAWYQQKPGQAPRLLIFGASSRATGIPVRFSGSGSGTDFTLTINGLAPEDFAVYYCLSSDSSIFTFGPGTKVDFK

Row | Substance | stoichiometry N (Fabs per F trimer) [1] | Kd [2] [nM] | Kd [3] [nM] | Kd [4] [nM]
1 | AM22 antigen-binding fragment (Fab) | 3 | 6.7 | 6.1 | 0.12
2 | D25 Fab |  |  | 0.33 | < 0.064
